Patent publication US20060292672

Biological target: T1, rhPTH(1-34)Gly35-OH, P01270
T1 chain: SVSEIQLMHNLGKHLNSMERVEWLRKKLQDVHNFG

B1: peptidylglycine alpha-amidating monooxygenase expressed by cell line UGL 73-26/M (protein)
chain: FRSPLSVFKRFKETTRSFSNECLGTIGPVTPLDASDFALDIRMPGVTPKESDTYFCMSMRLPVDEEAFVIDFKPRASMDTVHHMLLFGCNMPSSTGSYWFCDEGTCTDKANILYAWARNAPPTRLPKGVGFRVGGETGSKYFVLQVHYGDISAFRDNHKDCSGVSVHLTRVPQPLIAGMYLMMSVDTVIPPGEKVVNADISCQYKMYPMHVFAYRVHTHHLGKVVSGYRVRNGQWTLIGRQNPQLPQAFYPVEHPVDVTFGDILAARCVFTGEGRTEATHIGGTSSDEMCNLYIMYYMEAKYALSFMTCTKNVAPDMFRTIPAEANIPIPVKPDMVMMHGHHKEAENKEKSALMQQPKQGEEEVLEQDFHVEEELDWPGVYLLPGQVSGVALDSKNNLVIFHRGDHVWDGNSFDSKFVYQQRGLGPIEEDTILVIDPNNAEILQSSGKNLFYLPHGLSIDTDGNYWVTDVALHQVFKLDPHSKEGPLLILGRSMQPGSDQNHFCQPTDVAVEPSTGAVFVSDGYCNSRIVQFSPSGKFVTQWGEESSGSSPRPGQFSVPHSLALVPHLDQLCVADRENGRIQCFKTDTKEFVREIKHASFGRNVFAISYIPGFLFAVNGKPYFGDQEPVQGFVMNFSSGEIIDVFKPVRKHFDMPHDIVASEDGTVYIGDAHTNTVWKFTLTEKMEHRSV
overall yield of rhPTH(1-34)-NH2 from enzymatic amidation (preparative reaction followed by CEX and RP purification): yielding 11.8 grams (95% overall yield from amidation) of rhPTH(1-34)-NH2
